The results in this text go back to publication PMC3882260, “Defining the Ligand Specificity of the Deleted in Colorectal Cancer (DCC) Receptor” (PLoS ONE, 2014).

This assay has as its target T1, extracellular domain of human DCC (M1-N1097) with a C-terminal Fc tag (human, UniProt P43146 26-1097).
T1 construct: signal peptide in the construct; Deleted in Colorectal Cancer (DCC), human, extracellular domain, amino acids 1-1097; On the array it was loaded on protein-A microbeads 1:1 with Cy5-labeled human IgG; in SPR it was amine-coupled to the chip; also called DCC-Fc; source: CHO cells, transient transfection, purified (protein A-Sepharose, gel filtration); not shown: Fc (human IgG), C-terminal, kept
The assay is described as follows: peptide or protein array; DCC-Fc mixed 1:1 with Cy5-labeled hIgG on multivalent protein-A microbeads, incubated with extracellular protein microarrays (Library 1: 1,334 samples; Library 2: 624 samples) on epoxysilane slides; washed with PBS-T; Cy5 fluorescence; two replicate screens. As to conditions: both partners purified.

T1 sequence (P43146 26-1097): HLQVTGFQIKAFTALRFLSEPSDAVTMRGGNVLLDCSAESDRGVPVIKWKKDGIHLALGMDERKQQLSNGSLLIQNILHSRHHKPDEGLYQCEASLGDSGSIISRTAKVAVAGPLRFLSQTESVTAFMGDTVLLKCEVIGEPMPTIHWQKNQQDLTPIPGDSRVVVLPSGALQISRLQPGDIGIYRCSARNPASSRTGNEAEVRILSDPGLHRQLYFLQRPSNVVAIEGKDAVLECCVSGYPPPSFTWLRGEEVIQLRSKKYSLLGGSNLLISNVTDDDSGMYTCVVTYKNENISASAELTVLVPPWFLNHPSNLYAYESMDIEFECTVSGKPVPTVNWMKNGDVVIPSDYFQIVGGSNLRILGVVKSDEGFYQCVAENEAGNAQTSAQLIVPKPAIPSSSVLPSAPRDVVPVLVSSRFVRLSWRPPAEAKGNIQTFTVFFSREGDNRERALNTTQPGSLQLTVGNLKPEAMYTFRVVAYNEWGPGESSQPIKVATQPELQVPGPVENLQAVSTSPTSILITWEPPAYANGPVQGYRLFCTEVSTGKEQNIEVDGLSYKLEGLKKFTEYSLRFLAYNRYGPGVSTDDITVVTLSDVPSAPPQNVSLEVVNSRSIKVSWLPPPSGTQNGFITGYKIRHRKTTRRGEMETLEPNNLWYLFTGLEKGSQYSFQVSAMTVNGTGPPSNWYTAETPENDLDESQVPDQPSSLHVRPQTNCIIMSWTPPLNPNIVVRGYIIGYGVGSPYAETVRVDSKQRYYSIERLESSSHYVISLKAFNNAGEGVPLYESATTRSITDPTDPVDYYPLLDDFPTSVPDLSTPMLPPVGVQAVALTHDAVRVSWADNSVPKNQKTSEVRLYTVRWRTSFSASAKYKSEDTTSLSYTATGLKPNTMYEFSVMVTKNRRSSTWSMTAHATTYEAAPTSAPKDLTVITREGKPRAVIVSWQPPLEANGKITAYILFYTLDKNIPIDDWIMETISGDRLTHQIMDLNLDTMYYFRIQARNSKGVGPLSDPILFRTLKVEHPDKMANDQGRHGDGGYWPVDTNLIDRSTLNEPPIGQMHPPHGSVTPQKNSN

B1: full length CBLN4 C-terminal His (ligand, human, UniProt Q9NTU7 28-201, looked up)
chain: QNDTEPIVLEGKCLVVCDSNPATDSKGSSSSPLGISVRAANSKVAFSAVRSTNHEPSEMSNKTRIIYFDQILVNVGNFFTLESVFVAPRKGIYSFSFHVIKVYQSQTIQVNLMLNGKPVISAFAGDKDVTREAATNGVLLYLDKEDKVYLKLEKGNLVGGWQYSTFSGFLVFPL
notes: Cerebellin 4 (CBLN4), full length; also called CBLN4-His
As for B1, the binding result is on record as “binds”.
